Experimental findings from the Immune Epitope Database (IEDB) are described below.

Targets include HLA-A*03:01; HLA-A*11:01; HLA-A*31:01; HLA-A*33:01; HLA-A*68:01.
What all share (assay): IEDB peptide-MHC binding, purified MHC/competitive/radioactivity; filed as Kd, often an IC50 or EC50 that approximates it; ≥ and ≤ were set here for values at or beyond the usual limits of such assays
The mark [1] stands for this setting: source organism: SARS coronavirus Tor2.
Setting [2] is: source organism: Dengue virus 2 Peru/IQT2913/1996.
Setting [3] is: source organism: Vaccinia virus WR.
[4] abbreviates: source organism: Dengue virus 4 Philippines/H241/1956.
Where [5] appears, read: source organism: Dengue virus 4 Dominica/814669/1981.
The mark [6] stands for this setting: source organism: Lymphocytic choriomeningitis virus (strain Armstrong).

As for DQDALFAYTK, the Kd in the assay with HLA-A*03:01 (setting [1]) was 4250 nM; with HLA-A*11:01 (setting [1]), 2600 nM; with HLA-A*31:01 (setting [1]) it was 3720 nM; with HLA-A*33:01 (setting [1]) it was 9.57 µM; with HLA-A*68:01 (setting [1]) it was 1270 nM.

For TTFITPMLR, the Kd amounted to 13.2 nM with HLA-A*03:01 (setting [2]); 84.4 nM with HLA-A*11:01 (setting [2]); 27.1 nM in the assay with HLA-A*31:01 (setting [2]); 0.0117 µM with HLA-A*33:01 (setting [2]); 6.76 nM in the assay with HLA-A*68:01 (setting [2]).

For the sequence SLTVLFDGR, the Kd stood at 4810 nM in the assay with HLA-A*03:01 (setting [1]); 7530 nM in the assay with HLA-A*11:01 (setting [1]); 350 nM with HLA-A*31:01 (setting [1]); 2.52 µM in the assay with HLA-A*33:01 (setting [1]); 1340 nM in the assay with HLA-A*68:01 (setting [1]).

On to VLTSEEVVLK, for which the Kd with HLA-A*03:01 (setting [1]) was 7470 nM; with HLA-A*11:01 (setting [1]) it was 966 nM; with HLA-A*31:01 (setting [1]), at least 70000 nM; with HLA-A*33:01 (setting [1]), at least 70 µM; in the assay with HLA-A*68:01 (setting [1]), 2100 nM.

NLLDSYFVVK: the Kd is 5370 nM with HLA-A*03:01 (setting [1]); 1870 nM with HLA-A*11:01 (setting [1]); 7220 nM in the assay with HLA-A*31:01 (setting [1]); 4.59 µM with HLA-A*33:01 (setting [1]); 2350 nM with HLA-A*68:01 (setting [1]).

Turning to KVKTELVMDK, the equilibrium dissociation constant (Kd) in the assay with HLA-A*03:01 (setting [3]) is 1330 nM; with HLA-A*11:01 (setting [3]), 409 nM; with HLA-A*31:01 (setting [3]) it was 120 nM; with HLA-A*33:01 (setting [3]), at least 70 µM; with HLA-A*68:01 (setting [3]) it was at least 48600 nM.

As to KVVDTFISY, the Kd with HLA-A*03:01 (setting [3]) was 7.9 nM; with HLA-A*11:01 (setting [3]), 4.98 nM; with HLA-A*31:01 (setting [3]), 1170 nM; with HLA-A*33:01 (setting [3]) it was 12.3 µM; with HLA-A*68:01 (setting [3]), 3380 nM.

As for DIEIGNFYIR, the Kd in the assay with HLA-A*03:01 (setting [3]) came to 845 nM; in the assay with HLA-A*11:01 (setting [3]), 10400 nM; with HLA-A*31:01 (setting [3]), 822 nM; with HLA-A*33:01 (setting [3]), 0.129 µM; in the assay with HLA-A*68:01 (setting [3]) it was 49 nM.

Consider MMKLGISPSK, for which the Kd turned out to be 11.5 nM with HLA-A*03:01 (setting [3]); 27.1 nM in the assay with HLA-A*11:01 (setting [3]); 382 nM with HLA-A*31:01 (setting [3]); 10.6 µM with HLA-A*33:01 (setting [3]); 81.1 nM with HLA-A*68:01 (setting [3]).

Turning to IILAALFMYY, the dissociation constant (Kd) was 679 nM with HLA-A*03:01 (setting [3]); 740 nM with HLA-A*11:01 (setting [3]); at least 70000 nM with HLA-A*31:01 (setting [3]); at least 70 µM with HLA-A*33:01 (setting [3]); 1480 nM with HLA-A*68:01 (setting [3]).

As for IITSTKTIEY, the Kd in the assay with HLA-A*03:01 (setting [3]) is 82.2 nM; with HLA-A*11:01 (setting [3]), 917 nM; in the assay with HLA-A*31:01 (setting [3]), 6630 nM; in the assay with HLA-A*33:01 (setting [3]), 14.1 µM; with HLA-A*68:01 (setting [3]) it was 5720 nM.

On to EFGRAKGSR, for which the Kd with HLA-A*33:01 (setting [4]) came to 0.0381 µM.

As for RMLNILNRR, in the assay with HLA-A*31:01 (source organism: Dengue virus 2 Jamaica/1409/1983), the Kd is 2.42 nM.

In the case of MTLMKGASRR, the Kd with HLA-A*31:01 (setting [5]) was found to be 81.9 nM; in the assay with HLA-A*33:01 (setting [5]), 0.0685 µM; with HLA-A*68:01 (setting [5]), 39.7 nM.

For the sequence SLTSLLKTHR, the Kd with HLA-A*03:01 (setting [1]) was determined as 1450 nM; with HLA-A*11:01 (setting [1]), 1230 nM; with HLA-A*31:01 (setting [1]), 105 nM; with HLA-A*33:01 (setting [1]), 0.804 µM; in the assay with HLA-A*68:01 (setting [1]) it was 698 nM.

For the sequence SALTLHWFR, the values for the Kd with HLA-A*31:01 (setting [4]), with HLA-A*33:01 (setting [4]) and with HLA-A*68:01 (setting [4]) were 0.247 nM, 0.0037 µM and 2.37 nM, respectively.

In the case of QFNFNGHTY, the Kd is 5300 nM in the assay with HLA-A*03:01 (setting [3]); 14200 nM with HLA-A*11:01 (setting [3]); 565 nM in the assay with HLA-A*31:01 (setting [3]); at least 64.6 µM in the assay with HLA-A*33:01 (setting [3]); 175 nM in the assay with HLA-A*68:01 (setting [3]).

For the sequence SCQGSDDIRK, the dissociation constant (Kd) in the assay with HLA-A*03:01 (setting [6]) was at least 70000 nM; with HLA-A*11:01 (setting [6]) it was 18300 nM; in the assay with HLA-A*31:01 (setting [6]), 9930 nM; with HLA-A*33:01 (setting [6]), at least 70 µM; in the assay with HLA-A*68:01 (setting [6]), at least 70100 nM.

For KSKQDRSDGY, the Kd with HLA-A*03:01 (setting [3]) is at least 35300 nM; in the assay with HLA-A*11:01 (setting [3]), at least 69800 nM; with HLA-A*31:01 (setting [3]), at least 70000 nM; with HLA-A*33:01 (setting [3]), at least 70 µM; in the assay with HLA-A*68:01 (setting [3]), at least 70200 nM.

Consider DTTPFGQQR, for which the Kd in the assay with HLA-A*33:01 (setting [4]) worked out at 0.0945 µM; in the assay with HLA-A*68:01 (setting [4]) it was 91 nM.

As for FLEFSNRVY, the dissociation constant (Kd) in the assay with HLA-A*03:01 (setting [3]) is 43.5 nM; with HLA-A*11:01 (setting [3]), 3210 nM; with HLA-A*31:01 (setting [3]) it was 1330 nM; in the assay with HLA-A*33:01 (setting [3]), 8.43 µM; in the assay with HLA-A*68:01 (setting [3]) it was 10100 nM.

For the sequence ESRPFDLIK, the Kd came to 8370 nM with HLA-A*03:01 (setting [3]); 1320 nM in the assay with HLA-A*11:01 (setting [3]); 17900 nM in the assay with HLA-A*31:01 (setting [3]); 3.4 µM with HLA-A*33:01 (setting [3]); 22.1 nM with HLA-A*68:01 (setting [3]).

In the case of SVFYLYLTFY, the equilibrium dissociation constant (Kd) with HLA-A*03:01 (setting [1]) turned out to be 1790 nM; with HLA-A*11:01 (setting [1]), 196 nM; in the assay with HLA-A*31:01 (setting [1]), 2860 nM; in the assay with HLA-A*33:01 (setting [1]) it was 6.01 µM; in the assay with HLA-A*68:01 (setting [1]), 99.4 nM.

Regarding VTLFYCDER, the Kd with HLA-A*03:01 (setting [3]) is at least 43200 nM; with HLA-A*11:01 (setting [3]), 273 nM; with HLA-A*31:01 (setting [3]) it was 131 nM; in the assay with HLA-A*33:01 (setting [3]), 0.284 µM; with HLA-A*68:01 (setting [3]), 121 nM.

For DTSEKYSKGY, the Kd with HLA-A*03:01 (setting [3]) was at least 70100 nM; with HLA-A*11:01 (setting [3]) it was 886 nM; in the assay with HLA-A*31:01 (setting [3]) it was at least 70000 nM; in the assay with HLA-A*33:01 (setting [3]) it was at least 70 µM; in the assay with HLA-A*68:01 (setting [3]), 533 nM.

One may read the Kd as a measure of binding affinity in units of concentration.
